Target: protein sHIP (streptococcal Histidine-rich glycoprotein Interacting Protein), sHIPwt (S. pyogenes)
Experiment: AUC; sedimentation velocity, 20°C, 50000 rpm, 20 mM MES pH 5.5; c(S) distribution compared with theoretical sedimentation coefficients (HYDROPRO)

protein sHIP (streptococcal Histidine-rich glycoprotein Interacting Protein), sHIPwt (natural protein)
stoichiometry N: 4

From publication PMC4742562, “Structure and Interactions of a Dimeric Variant of sHIP, a Novel Virulence Determinant of Streptococcus pyogenes” (Frontiers in Microbiology, 2016)
